From patent US20240400715A1 (VIBRANT PHARMA, published 2024)
“And” between values parts separate entries of the source, which are not always exact repeats. Equal values may be shown once.

Legend:
[1] = biological target: T1, human CD3 on Jurkat cells (human, UniProt P07766 23-207; P04234 22-171; P09693 23-182); experiment: FACS, Jurkat cells;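 note: flow cytometric binding of bispecific antibodies to Jurkat T cells, threefold serial dilutions incubated half an hour in the cold, EC50 taken from the fitted binding curve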
T1 construct: whole, on cells; CD3 complex as on Jurkat (Clone E6-1) cells; also called CD3 expressing cells (Jurkat)
Procedure: The binding of the bispecific antibodies was tested on the CA expressing human lung adenocarcinoma cell line (H1573) and the CD3 expressing immortalized T lymphocyte line (Jurkat). The steps are as follows: the cells were harvested, counted, and resuspended in FACS buffer (PBS containing 0.1% BSA) at 2×10⁶ cells/ml. 100 μl of cell suspension was incubated in a V-bottom 96-well plate at 4° C. with 3-fold serial dilutions of bispecific antibodies (20 μg/ml-0.009 μg/ml) for 30 minutes; washed twice with pre-cooled FACS buffer. […] GraphPadPrism was used to obtain the binding curve.

[2] = biological target: T2, human CD3ε/δ (ACRO systems, CDD-H52W1) (human, UniProt P07766 23-126; P04234 22-105); experiment: BLI, antibody captured, antigen in solution;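 note: bispecific antibodies captured on AHIC biosensors to a 1.5 nm loading signal, in PBST with 0.02% detergent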
T2 construct: Bought protein; also called human CD3ϵ/CD3δ; human CD3 epsilon/delta antigen
Procedure: The bispecific antibodies were diluted to 5 ag/ml, and 1.5 nm protein was coupled to the surface of the AHIC sensor chip through 0.02% PBST.

[3] = biological target: T3, human CD3ε/δ (ACRO systems, CDD-H52W1) (human, UniProt P07766 23-126; P04234 22-105); experiment: BLI, antibody captured on AHC sensor, 30 C
T3 construct: bought recombinant heterodimer; also called human CD3 epsilon/delta; Human CD3ε/CD3δ

Binder | EC50 [1] | Kd [2] | koff [2] | kon [2] | Kd [3] | koff [3] | kon [3]
305 (TA6), configuration of FIG. 1W (bispecific antibody, IgG4, chains put together from VH/VL, CH1, knob-Fc; IgG4, kappa; also called CEA-CD3 bispecific antibody 305; not shown: kappa light chain constant domain (CL)) heavy: EVQLVQSGAEVKKPGASVKVSCKASGYTFTNYYIHWVRQAPGQGLEWIGWIYPGDGNTKYNEKFKGRATLTADTSTSTAYLELSSLRSEDTAVYYCARDSYSNYYFDYWGQGTLVTVSSASTKGPSVFPLAPCSRSTSESTAALGCLVKDYFPEPVTVSWNSGALTSGVHTFPAVLQSSGLYSLSSVVTVPSSSLGTKTYTCNVDHKPSNTKVDKRVESKYGPPCPPCPAPEAAGGPSVFLFPPKPKDTLMISRTPEVTCVVVDVSQEDPEVQFNWYVDGVEVHNAKTKPREEQFNSTYRVVSVLTVLHQDWLNGKEYKCKVSNKGLPSSIEKTISKAKGQPREPQVYTLPPCQEEMTKNQVSLWCLVKGFYPSDIAVEWESNGQPENNYKTTPPVLDSDGSFFLYSRLTVDKSRWQEGNVFSCSVMHEALHNHYTQKSLSLSL EVQLVESGGGFVQAGESLTLSCTSSTLTFTPYRMAWYRQAPGKQRDLVADISSGDGRTTNYADFAKGRFTISRDNIKNTVFLRMTNLKPEDTAVYYCNTFVSFVGIARSWGQGTQVTVSSESKYGPPCPPCPAPEAAGGPSVFLFPPKPKDTLMISRTPEVTCVVVDVSQEDPEVQFNWYVDGVEVHNAKTKPREEQFNSTYRVVSVLTVLHQDWLNGKEYKCKVSNKGLPSSIEKTISKAKGQPREPQVCTLPPSQEEMTKNQVSLSCAVKGFYPSDIAVEWESNGQPENNYKTTPPVLDSDGSFFLVSRLTVDKSRWQEGNVFSCSVMHEALHNRFTQKSLSLSL light: DIVMTQSPDSLAVSLGERATINCKSSQSLLNSRTRKNYLAWYQQKPGQPPKLLIYWASTRESGVPDRFSGSGSGTDFTLTISSLQAEDVAVYYCTQSFILRTFGQGTKVEIK | 0.267 µg/mL and 2.05 nM | 2.85 nM | 0.00087 s⁻¹ | 324000 M⁻¹ s⁻¹ |  |  | 
HER2-CD3 bispecific antibody 501 (bispecific antibody, human IgG4 S228P, kappa, F234A L235A, VHH-hole chain assembled from VHH and hole-Fc with hinge) heavy: EVKLLESGGGLVQPKGSLKLSCAASGFTFNTYAMNWVRQAPGKGLEWVARIRSKYNNYATYYADSVKDRFTISRDDSQSILYLQMNNLKTEDTAMYYCVRHGNFGNSYVSWFAYWGQGTLVTVSSASTKGPSVFPLAPCSRSTSESTAALGCLVKDYFPEPVTVSWNSGALTSGVHTFPAVLQSSGLYSLSSVVTVPSSSLGTKTYTCNVDHKPSNTKVDKRVESKYGPPCPPCPAPEAAGGPSVFLFPPKPKDTLMISRTPEVTCVVVDVSQEDPEVQFNWYVDGVEVHNAKTKPREEQFNSTYRVVSVLTVLHQDWLNGKEYKCKVSNKGLPSSIEKTISKAKGQPREPQVYTLPPCQEEMTKNQVSLWCLVKGFYPSDIAVEWESNGQPENNYKTTPPVLDSDGSFFLYSRLTVDKSRWQEGNVFSCSVMHEALHNHYTQKSLSLSL QVQLVQSGGGLVQAGGSLRLSCAASGRTFSSYAMAWFRQAPGKEREFVAAISWSGANIYVADSVKGRFTISRDNAKDTVYLQMNSLKPEDTAVYYCAVKLGFAPVEERQYDYWGQGTQVTVSSESKYGPPCPPCPAPEAAGGPSVFLFPPKPKDTLMISRTPEVTCVVVDVSQEDPEVQFNWYVDGVEVHNAKTKPREEQFNSTYRVVSVLTVLHQDWLNGKEYKCKVSNKGLPSSIEKTISKAKGQPREPQVCTLPPSQEEMTKNQVSLSCAVKGFYPSDIAVEWESNGQPENNYKTTPPVLDSDGSFFLVSRLTVDKSRWQEGNVFSCSVMHEALHNRFTQKSLSLSL light: QAVVTQESALTTSPGETVTLTCRSSTGAVTTSNYANWVQEKPDHLFTGLIGGTNKRAPGVPARFSGSLIGDKAALTITGAQTEDEAIYFCALWYSNLWVFGGGTKVEIKRTVAAPSVFIFPPSDEQLKSGTASVVCLLNNFYPREAKVQWKVDNALQSGNSQESVTEQDSKDSTYSLSSTLTLSKADYEKHKVYACEVTHQGLSSPVTKSFNRGEC |  |  |  |  | 3.14 nM | 0.000508 s⁻¹ | 162000 M⁻¹ s⁻¹
Knob+Fab-Hole-CEA (106) (bispecific antibody, human IgG4 S228P, kappa, F234A L235A, Anti-CD3 TA1 Fab + anti-CEA VHH C17 on human IgG4 knob-into-hole Fc) ESKYGPPCPPCPAPEAAGGPSVFLFPPKPKDTLMISRTPEVTCVVVDVSQEDPEVQFNWYVDGVEVHNAKTKPREEQFNSTYRVVSVLTVLHQDWLNGKEYKCKVSNKGLPSSIEKTISKAKGQPREPQVYTLPPCQEEMTKNQVSLWCLVKGFYPSDIAVEWESNGQPENNYKTTPPVLDSDGSFFLYSRLTVDKSRWQEGNVFSCSVMHEALHNHYTQKSLSLSL heavy: EVKLLESGGGLVQPKGSLKLSCAASGFTFNTYAMNWVRQAPGKGLEWVARIRSKYNNYATYYADSVKDRFTISRDDSQSILYLQMNNLKTEDTAMYYCVRHGNFGNSYVSWFAYWGQGTLVTVSSASTKGPSVFPLAPCSRSTSESTAALGCLVKDYFPEPVTVSWNSGALTSGVHTFPAVLQSSGLYSLSSVVTVPSSSLGTKTYTCNVDHKPSNTKVDKRVESKYGPPCPPCPAPEAAGGPSVFLFPPKPKDTLMISRTPEVTCVVVDVSQEDPEVQFNWYVDGVEVHNAKTKPREEQFNSTYRVVSVLTVLHQDWLNGKEYKCKVSNKGLPSSIEKTISKAKGQPREPQVCTLPPSQEEMTKNQVSLSCAVKGFYPSDIAVEWESNGQPENNYKTTPPVLDSDGSFFLVSRLTVDKSRWQEGNVFSCSVMHEALHNRFTQKSLSLSLGGGGSGGGGSEVQLVESGGGFVQAGESLTLSCTSSTLTFTPYRMAWYRQAPGKQRDLVADISSGDGRTTNYADFAKGRFTISRDNIKNTVFLRMTNLKPEDTAVYYCNTFVSFVGIARSWGQGTQVTVSS light: QAVVTQESALTTSPGETVTLTCRSSTGAVTTSNYANWVQEKPDHLFTGLIGGTNKRAPGVPARFSGSLIGDKAALTITGAQTEDEAIYFCALWYSNLWVFGGGTKVEIKRTVAAPSVFIFPPSDEQLKSGTASVVCLLNNFYPREAKVQWKVDNALQSGNSQESVTEQDSKDSTYSLSSTLTLSKADYEKHKVYACEVTHQGLSSPVTKSFNRGEC | 0.69 µg/mL and 5.31 nM | 0.589 nM | 0.000215 s⁻¹ | 366000 M⁻¹ s⁻¹ |  |  | 
HER2-CD3 bispecific antibody 504 (bispecific antibody, human IgG4 S228P, kappa, F234A L235A, VHH-knob chain assembled from VHH and knob-Fc with hinge) QVQLVQSGGGLVQAGGSLRLSCAASGRTFSSYAMAWFRQAPGKEREFVAAISWSGANIYVADSVKGRFTISRDNAKDTVYLQMNSLKPEDTAVYYCAVKLGFAPVEERQYDYWGQGTQVTVSSESKYGPPCPPCPAPEAAGGPSVFLFPPKPKDTLMISRTPEVTCVVVDVSQEDPEVQFNWYVDGVEVHNAKTKPREEQFNSTYRVVSVLTVLHQDWLNGKEYKCKVSNKGLPSSIEKTISKAKGQPREPQVYTLPPCQEEMTKNQVSLWCLVKGFYPSDIAVEWESNGQPENNYKTTPPVLDSDGSFFLYSRLTVDKSRWQEGNVFSCSVMHEALHNHYTQKSLSLSL heavy: EVKLLESGGGLVQPKGSLKLSCAASGFTFNTYAMNWVRQAPGKGLEWVARIRSKYNNYATYYADSVKDRFTISRDDSQSILYLQMNNLKTEDTAMYYCVRHGNFGNSYVSWFAYWGQGTLVTVSSASTKGPSVFPLAPCSRSTSESTAALGCLVKDYFPEPVTVSWNSGALTSGVHTFPAVLQSSGLYSLSSVVTVPSSSLGTKTYTCNVDHKPSNTKVDKRVESKYGPPCPPCPAPEAAGGPSVFLFPPKPKDTLMISRTPEVTCVVVDVSQEDPEVQFNWYVDGVEVHNAKTKPREEQFNSTYRVVSVLTVLHQDWLNGKEYKCKVSNKGLPSSIEKTISKAKGQPREPQVCTLPPSQEEMTKNQVSLSCAVKGFYPSDIAVEWESNGQPENNYKTTPPVLDSDGSFFLVSRLTVDKSRWQEGNVFSCSVMHEALHNRFTQKSLSLSL light: QAVVTQESALTTSPGETVTLTCRSSTGAVTTSNYANWVQEKPDHLFTGLIGGTNKRAPGVPARFSGSLIGDKAALTITGAQTEDEAIYFCALWYSNLWVFGGGTKVEIKRTVAAPSVFIFPPSDEQLKSGTASVVCLLNNFYPREAKVQWKVDNALQSGNSQESVTEQDSKDSTYSLSSTLTLSKADYEKHKVYACEVTHQGLSSPVTKSFNRGEC |  |  |  |  | 2.79 nM | 0.0005 s⁻¹ | 179000 M⁻¹ s⁻¹
